Drawing on article doi:10.1101/2021.08.01.454623, this text covers Kd for 1 molecule.

The data set concerns the target CL11 (ribosomal protein L11 C-terminal domain, wild type) (Bacillus stearothermophilus, UniProt P56210 59-133). As to the kind of experiment: SPR. (In general: Surface plasmon resonance follows binding to a sensor surface in real time, without labels.)

CL11 (ribosomal protein L11 C-terminal domain, wild type), sequence (P56210 59-133): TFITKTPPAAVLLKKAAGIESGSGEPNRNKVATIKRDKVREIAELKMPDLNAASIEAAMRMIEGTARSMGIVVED

B1: biotinylated 58rRNA (structured_RNA)
RNA: GCCAGGAUGUAGGCUUAGAAGCAGCCAUCAUUUAAAGAAAGCGUAAUAGCUCACUGGU
A word on the Kd: it is the constant that tells how readily two partners part at equilibrium. B1 had a Kd of 2.4 nM.
